T1: NocΔCTD-His6 (Bacillus subtilis, UniProt P37524 1-242)
T1 sequence: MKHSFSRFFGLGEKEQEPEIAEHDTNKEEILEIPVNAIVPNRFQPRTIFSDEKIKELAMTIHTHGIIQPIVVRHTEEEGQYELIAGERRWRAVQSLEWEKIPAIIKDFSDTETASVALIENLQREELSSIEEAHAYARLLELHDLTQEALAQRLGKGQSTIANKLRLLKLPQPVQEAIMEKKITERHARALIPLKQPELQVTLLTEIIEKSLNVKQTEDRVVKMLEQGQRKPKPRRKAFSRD


Key:
NocΔCTD-His6 = target: T1, NocΔCTD-His6; experiment: X-ray crystallography
crystal structure = target: the molecule itself; experiment: crystal structure

| Binder | binding result (NocΔCTD-His6) | stoichiometry N (crystal structure) |
| --- | --- | --- |
| 16-bp NBS (dsDNA) DNA 1: TATTTCCCGGGAAATA DNA 2: TATTTCCCGGGAAATA | binds | – |
| Bacillus subtilis NocΔCTD-His6 (domain or fragment, UniProt P37524 1-242, looked up) MKHSFSRFFGLGEKEQEPEIAEHDTNKEEILEIPVNAIVPNRFQPRTIFSDEKIKELAMTIHTHGIIQPIVVRHTEEEGQYELIAGERRWRAVQSLEWEKIPAIIKDFSDTETASVALIENLQREELSSIEEAHAYARLLELHDLTQEALAQRLGKGQSTIANKLRLLKLPQPVQEAIMEKKITERHARALIPLKQPELQVTLLTEIIEKSLNVKQTEDRVVKMLEQGQRKPKPRRKAFSRD | – | 2 |

Reference: article doi:10.1101/2022.02.28.481274 (bioRxiv, 2022)
